Values belong to the binder of their own block, whether it stands above or below them.
Molecular target: T1, Abp1 SH3 (ABP1_YEAST), P15891
T1 chain: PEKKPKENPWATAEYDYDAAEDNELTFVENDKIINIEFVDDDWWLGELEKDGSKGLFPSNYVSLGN
Experiment: SPOT array

normalised SPOT signal, Boehringer light units (BLU); mean over the file's lines of this peptide: 178
B1: YIL029C 115-127 (peptide)
chain: SSQGINVPGTKKP

normalised SPOT signal, Boehringer light units (BLU); mean over the file's lines of this peptide: 86.3
B2: YOR175C 203-215 (peptide)
chain: SEMFRDLPESKKP

normalised SPOT signal, Boehringer light units (BLU); mean over the file's lines of this peptide: 71
B3: YAR033W 173-185 (peptide)
chain: ATSIGNSPVTAKP

normalised SPOT signal, Boehringer light units (BLU); mean over the file's lines of this peptide: 49.7
B4: YBR031W 19-32 (peptide)
chain: ALPLPAVFSAPIRP

normalised SPOT signal, Boehringer light units (BLU); mean over the file's lines of this peptide: 332
B5: YGL099W 6-18 (peptide)
chain: APKKWKAPKGPKP

normalised SPOT signal, Boehringer light units (BLU); mean over the file's lines of this peptide: 5260
B6: YHR205W 678-690 (peptide)
chain: ALKQKKIPPPFKP

normalised SPOT signal, Boehringer light units (BLU); mean over the file's lines of this peptide: 35.4
B7: YDR331W 298-310 (peptide)
chain: ANVQNVIPDDSKP

normalised SPOT signal, Boehringer light units (BLU); mean over the file's lines of this peptide: 99.8
B8: YOR098C 642-655 (peptide)
chain: AQKDSSVVSEPKKP

normalised SPOT signal, Boehringer light units (BLU); mean over the file's lines of this peptide: 68
B9: YMR003W 182-194 (peptide)
chain: SLWWNLEPQESKP

normalised SPOT signal, Boehringer light units (BLU); mean over the file's lines of this peptide: 143
B10: YPL019C 671-683 (peptide)
chain: ASSFQLPPGVKKP

normalised SPOT signal, Boehringer light units (BLU); mean over the file's lines of this peptide: 102
B11: YOR056C 307-319 (peptide)
chain: SFKIFPLPKDGKP

normalised SPOT signal, Boehringer light units (BLU); mean over the file's lines of this peptide: 92.1
B12: YGR170W 87-100 (peptide)
chain: ALPTGAPPTTPSRP

normalised SPOT signal, Boehringer light units (BLU); mean over the file's lines of this peptide: 78.3
B13: YLR189C 1077-1089 (peptide)
chain: ASLRAGLPTVIKP

normalised SPOT signal, Boehringer light units (BLU); mean over the file's lines of this peptide: 464
B14: YJR124C 130-142 (peptide)
chain: AMIAHLSPHNARP

normalised SPOT signal, Boehringer light units (BLU); mean over the file's lines of this peptide: 93.1
B15: YMR016C 645-657 (peptide)
chain: ASTLGITPADSKP

normalised SPOT signal, Boehringer light units (BLU); mean over the file's lines of this peptide: 1510
B16: YHR009C 132-144 (peptide)
chain: AYNLNVPPPKKRP

normalised SPOT signal, Boehringer light units (BLU); mean over the file's lines of this peptide: 190
B17: YMR115W 51-64 (peptide)
chain: APIPESPANSPTRP

normalised SPOT signal, Boehringer light units (BLU); mean over the file's lines of this peptide: 630
B18: YEL007W 23-36 (peptide)
chain: ATLDGKLKHIPRRP

normalised SPOT signal, Boehringer light units (BLU); mean over the file's lines of this peptide: 59.6
B19: YOR068C 68-80 (peptide)
chain: SSSSSGLPATDKP

normalised SPOT signal, Boehringer light units (BLU); mean over the file's lines of this peptide: 108
B20: YOR066W 218-231 (peptide)
chain: SDTDTLPEAPPAKP

normalised SPOT signal, Boehringer light units (BLU); mean over the file's lines of this peptide: 99.2
B21: YDR406W 122-134 (peptide)
chain: ANISTSDPDFYKP

normalised SPOT signal, Boehringer light units (BLU); mean over the file's lines of this peptide: 72.1
B22: YPR068C 139-151 (peptide)
chain: SINNSEVPTNDKP

normalised SPOT signal, Boehringer light units (BLU); mean over the file's lines of this peptide: 103
B23: YPL012W 496-508 (peptide)
chain: APLNLDNPSSERP

normalised SPOT signal, Boehringer light units (BLU); mean over the file's lines of this peptide: 324
B24: YPL100W 257-269 (peptide)
chain: SFTAYSSPKKNKP

normalised SPOT signal, Boehringer light units (BLU); mean over the file's lines of this peptide: 56
B25: YKL196C 76-89 (peptide)
chain: SGVLITDKEYPVRP

normalised SPOT signal, Boehringer light units (BLU); mean over the file's lines of this peptide: 342
B26: YCL055W 274-286 (peptide)
chain: ARTGYETPVKVRP

normalised SPOT signal, Boehringer light units (BLU); mean over the file's lines of this peptide: 91.9
B27: YOR251C 241-254 (peptide)
chain: ALKDFHSTLDPSKP

normalised SPOT signal, Boehringer light units (BLU); mean over the file's lines of this peptide: 8310
B28: YOL138C 1118-1131 (peptide)
chain: APIIGSPRHAPSRP

normalised SPOT signal, Boehringer light units (BLU); mean over the file's lines of this peptide: 46.2
B29: YMR244W 79-91 (peptide)
chain: SSYGSWSPYASKP

normalised SPOT signal, Boehringer light units (BLU); mean over the file's lines of this peptide: 2150
B30: YML059C 513-525 (peptide)
chain: ASSKLKKPPKAKP

normalised SPOT signal, Boehringer light units (BLU); mean over the file's lines of this peptide: 86
B31: YEL070W 157-170 (peptide)
chain: APEIINDLNHPEKP

normalised SPOT signal, Boehringer light units (BLU); mean over the file's lines of this peptide: 112
B32: YDR135C 180-193 (peptide)
chain: SASILLLEALPKKP

normalised SPOT signal, Boehringer light units (BLU); mean over the file's lines of this peptide: 103
B33: YLR335W 584-596 (peptide)
chain: ATKVDATPEESKP

normalised SPOT signal, Boehringer light units (BLU); mean over the file's lines of this peptide: 78.5
B34: YDL129W 167-179 (peptide)
chain: ASSAELRPLLERP

normalised SPOT signal, Boehringer light units (BLU); mean over the file's lines of this peptide: 364
B35: YJL128C 177-190 (peptide)
chain: AQLLNPNRRAPRRP

normalised SPOT signal, Boehringer light units (BLU); mean over the file's lines of this peptide: 2110
B36: YLR430W 2217-2229 (peptide)
chain: ASSSPFIPKKRKP

normalised SPOT signal, Boehringer light units (BLU); mean over the file's lines of this peptide: 112
B37: YGL060W 533-546 (peptide)
chain: ANSVPIMPTLPPRP

normalised SPOT signal, Boehringer light units (BLU); mean over the file's lines of this peptide: 517
B38: YKR089C 707-719 (peptide)
chain: ASTYGRSPSGFRP

normalised SPOT signal, Boehringer light units (BLU); mean over the file's lines of this peptide: 9430
B39: YLR281C 14-27 (peptide)
chain: AVLLIKKNKLPPRP

normalised SPOT signal, Boehringer light units (BLU); mean over the file's lines of this peptide: 78.7
B40: YIL031W 418-430 (peptide)
chain: ATTEFETPELFKP

normalised SPOT signal, Boehringer light units (BLU); mean over the file's lines of this peptide: 99.3
B41: YKL103C 202-214 (peptide)
chain: SRIPSLAPHFGKP

normalised SPOT signal, Boehringer light units (BLU); mean over the file's lines of this peptide: 2410
B42: YDL145C 797-809 (peptide)
chain: ASNFVQRPVISKP

normalised SPOT signal, Boehringer light units (BLU); mean over the file's lines of this peptide: 111
B43: YGL044C 219-231 (peptide)
chain: SKVDDLIPLASRP

normalised SPOT signal, Boehringer light units (BLU); mean over the file's lines of this peptide: 114
B44: YJL041W 251-264 (peptide)
chain: ASQPEPTTNEPAKP

normalised SPOT signal, Boehringer light units (BLU); mean over the file's lines of this peptide: 53.3
B45: YDL078C 69-82 (peptide)
chain: AQVVLIPAGVPRKP

normalised SPOT signal, Boehringer light units (BLU); mean over the file's lines of this peptide: 1990
B46: YLL018C 545-557 (peptide)
chain: ASLFPRDPKRLRP

normalised SPOT signal, Boehringer light units (BLU); mean over the file's lines of this peptide: 199
B47: YOL126C 141-154 (peptide)
chain: ASIVVIPAGVPRKP

normalised SPOT signal, Boehringer light units (BLU); mean over the file's lines of this peptide: 146
B48: YGL133W 239-251 (peptide)
chain: ASSKMGAPWSVKP

normalised SPOT signal, Boehringer light units (BLU); mean over the file's lines of this peptide: 118
B49: YLR106C 2240-2252 (peptide)
chain: SSQEDGQPRVLKP

normalised SPOT signal, Boehringer light units (BLU); mean over the file's lines of this peptide: 63.8
B50: YJL041W 183-196 (peptide)
chain: ATTNDDKKTEPDKP

normalised SPOT signal, Boehringer light units (BLU); mean over the file's lines of this peptide: 175
B51: YDR407C 928-940 (peptide)
chain: SVRIIKLPTVIKP

normalised SPOT signal, Boehringer light units (BLU); mean over the file's lines of this peptide: 144
B52: YLR077W 535-547 (peptide)
chain: SAKPMNIPEVLKP

normalised SPOT signal, Boehringer light units (BLU); mean over the file's lines of this peptide: 122
B53: YPL085W 1841-1854 (peptide)
chain: ASKLVEQHMAPPKP

normalised SPOT signal, Boehringer light units (BLU); mean over the file's lines of this peptide: 78.4
B54: YIL111W 69-82 (peptide)
chain: AWYISYGEWGPRRP

normalised SPOT signal, Boehringer light units (BLU); mean over the file's lines of this peptide: 74
B55: YDR200C 169-182 (peptide)
chain: ATFETKFLVVPFKP

normalised SPOT signal, Boehringer light units (BLU); mean over the file's lines of this peptide: 138
B56: YGL131C 433-446 (peptide)
chain: ALNDSMFFPYPFKP

normalised SPOT signal, Boehringer light units (BLU); mean over the file's lines of this peptide: 39.3
B57: YLR374C 54-66 (peptide)
chain: SHTKNTHPDFSKP

normalised SPOT signal, Boehringer light units (BLU); mean over the file's lines of this peptide: 0
B58: YGR234W 289-302 (peptide)
chain: AMLEEQVKSNPNRP

normalised SPOT signal, Boehringer light units (BLU); mean over the file's lines of this peptide: 80.3
B59: YEL056W 186-199 (peptide)
chain: ALWEVGSGGDPTKP

Reference: paper PMC314469, “Protein Interaction Networks by Proteome Peptide Scanning” (PLoS Biology, 2004)
